From patent US9518103B2, “Optogenetic probes for measuring membrane potential” (President and Fellows of Harvard College, priority 2014, dated 2016)
“And” between values parts separate entries of the source, which are not always exact repeats. Equal entries are not always repeated. Where two headings read alike, the source gives them in different places.

Tests used:
[1] = system: cultured rat hippocampal neurons; conditions: for signal-to-noise ratio (SNR) for single APs: 640 nm; for photobleaching time constant: continuous illumination 640 nm; for broadening of optically recorded AP relative to electrical waveform at 70% maximum depolarization: room temperature, 2 kHz frame rate; for r.m.s. temporal jitter of AP timing relative to patch clamp: sub-frame interpolation
HEK293T cells = assay: Simultaneous whole-cell patch clamp electrophysiology and fluorescence in HEK cells (brightness, voltage sensitivity, speed); format: cell-based; conditions: for Brightness (λexc = 640 nm) 0.7 W/cm^2 / Brightness (λexc = 640 nm) 800 W/cm^2 / Sensitivity (ΔF/F per 100 mV): HEK293 cells; for voltage sensitivity (ΔF/F per 100 mV) / brightness relative to wild-type Arch: HEK cells; for brightness compared with corresponding double mutants: eGFP fusions in HEK cells, exc. 640 nm
Description: Simultaneous electrophysiology and fluorescence in HEK cells: HEK293T cells (ATCC CRL-11268) were cultured and transfected following standard protocols.^10 Briefly, HEK-293 cells were grown at 37° C., 5% CO2, in DMEM supplemented with 10% FBS and penicillin-streptomycin. Plasmids were transfected using Transit 293T (Mirus) following the manufacturer's instructions, and assayed 48 hours later. The day before recording, cells were re-plated onto glass-bottom dishes (MatTek) at a density of ˜10,000 cells/cm^2.
Cells were supplemented with retinal by diluting stock retinal solutions (40 mM, DMSO) in growth medium to a final concentration of 5 μM, and then returning the cells to the incubator for 0.5-1 hour. All imaging and electrophysiology were performed in Tyrode buffer (containing, in mM: 125 NaCl, 2.5 KCl, 3 CaCl2, 1 MgCl2, 10 HEPES, 30 glucose pH 7.3, and adjusted to 305-310 mOsm with sucrose). A gap junction blocker, 2-aminoethoxydiphenyl borate (50 μM, Sigma), was added to eliminate electrical coupling between cells.
Filamented glass micropipettes (WPI) were pulled to a tip resistance of 5-10 MΩ, and filled with internal solution containing 125 mM potassium gluconate, 8 mM NaCl, 0.6 mM MgCl2, 0.1 mM CaCl2, 1 mM EGTA, 10 mM HEPES, 4 mM Mg-ATP, 0.4 mM Na-GTP (pH 7.3); adjusted to 295 mOsm with sucrose. Pipettes were positioned with a Sutter MP285 manipulator. Whole-cell, voltage and current clamp recordings were acquired using an […] 700B amplifier (Molecular Devices), filtered at 2 kHz with the internal Bessel filter and digitized with a National Instruments PCIE-6323 acquisition board at 5-10 kHz. Data was only acquired from HEK cells having reversal potentials between −10 and −40 mV, access resistance<25 MΩ and membrane resistance>0.5 GΩ.
Simultaneous whole-cell patch clamp recordings and fluorescence recordings were acquired on a home-built, inverted epifluorescence microscope, described previously^10 and described below in “Apparatus”. For step response measurements, voltage clamp electronics were compensated 90-95%. We examined variants of QuasAr1 with mutations at position 95 (Asn, Cys, Gin, His and Tyr) and position 106 (Arg, Asp, Asn, Cys, Glu, His, Lys and Tyr). These experiments confirmed that histidine at position 106 provided undetectable photocurrent, and the best combination of improved voltage sensitivity, and fast kinetics.
We compared the fluorescence, voltage sensitivity, and speed of the QuasArs to wild-type Arch in HEK cells, using epifluorescence microscopy and whole-cell patch clamp electrophysiology. Under low intensity illumination (640 nm, 500 mW/cm^2), QuasAr1 was 15-fold brighter than wild-type Arch, and QuasAr2 was 3.3-fold brighter (FIG. 1B; Methods).

[2] = Quantum yield of solubilized protein (Cy5 reference); format: physicochemical; conditions: for Quantum yield / Quantum yield relative to Arch D95N: excitation at 600 nm
Description: Solubilization and spectroscopic characterization of QuasAr1 and QuasAr: E. coli expressing QuasAr1 and QuasAr2 were grown in 12 mL LB medium with 200 μg/ml ampicillin overnight. The next day, 12 mL of liquid LB medium containing 50 μM retinal, 200 μg/ml ampicillin and 0.1% arabinose was added into the overnight culture, followed by additional incubation at 37° C. for 4 hours. The cell pellets were collected by centrifugation and lysed by suspension in B-PER solution (Pierce). The cytoplasmic fraction was discarded after centrifugation and the colored insoluble fraction was resuspended in phosphate buffered saline (PBS) containing 1.5% n-dodecyl-β-D-maltopyranoside (Affymetrix, Inc.). The suspension was homogenized by an ultrasonic homogenizer and centrifuged (17,000 g for 15 mins, 4° C.). The solubilized protein in the supernatant was used for in vitro spectroscopic characterization.
Absorption spectra were recorded on a DU-800 UV-visible spectrophotometer (Beckman) and fluorescence spectra were recorded on a Safire2 plate reader (Tecan). Cy5 carboxylic acid (Cyandye) was used as the reference for quantum yield measurement. Quantum yield measurements were performed on a series of dilutions of each protein solution and standard, with absorbance values ranging from 0.01 to 0.05 at 600 nm. The fluorescence emission spectra of each dilution were recorded with excitation at 600 nm and the total fluorescence intensities obtained by integration. Integrated fluorescence intensity vs. absorbance was plotted for each protein and each standard. Quantum yields, Φ, were determined from the slopes (S) of each line using the equation: Φprotein=Φstandard×(Sprotein/Sstandard).

[3] = low intensity illumination (640 nm, 500 mW/cm^2)

B1: QuasAr1: Archaerhodopsin 3 variant with mutations P60S, T80S, D95H, D106H, F161V; genetically encoded voltage indicator (protein)
chain: MDPIALQAGYDLLGDGRPETLWLGIGTLLMLIGTFYFLVRGWGVTDKDAREYYAVTILVSGIASAAYLSMFFGIGLTEVSVGGEMLDIYYARYAHWLFTTPLLLLHLALLAKVDRVTIGTLVGVDALMIVTGLIGALSHTAIARYSWWLFSTICMIVVLYVLATSLRSAAKERGPEVASTFNTLTALVLVLWTAYPILWIIGTEGAGVVGLGIETLLFMVLDVTAKVGFGFILLRSRAILGDTEAPEPSAGADVSAAD
[1]; 300 W/cm^2
  equivalent electrical noise level: 4.3 mV
  photobleaching time constant: 440 s
[1]; 300 W/cm^2, 1 kHz frame rate
  signal-to-noise ratio (SNR) for single APs: 21±2
[1]; 800 W/cm^2, 1 kHz frame rate
  signal-to-noise ratio (SNR) for single APs: 32±4
[1]; 800 W/cm^2
  equivalent electrical noise level: 3.0 mV
[1]; optically induced APs, soma, sub-frame interpolation vs patch clamp
  r.m.s. error in timing: 54 μs
[1]; mean±s.d.
  broadening of optically recorded AP relative to electrical waveform at 70% maximum depolarization: did not introduce detectable broadening
[1]
  r.m.s. temporal jitter of AP timing relative to patch clamp: 44 μs
HEK293T cells
  response faster than fastest previously reported GEVIs: more than 10 fold
  response time: 50 μs
  voltage sensitivity compared with QuasAr2: three-fold less than the sensitivity of QuasAr2
  voltage sensitivity (ΔF/F per 100 mV): 32±3%
  brightness compared with corresponding double mutants: significantly brighter than the corresponding double mutants
HEK293T cells; 23° C.
  τdown (+30 mV to −70 mV) % τ1: 88%
  τdown (+30 mV to −70 mV) τ1: 0.07 ms
  τdown (+30 mV to −70 mV) τ2: 1.9 ms
  τup (−70 mV to +30 mV) % τ1: 94%
  τup (−70 mV to +30 mV) τ1: 0.05 ms
  τup (−70 mV to +30 mV) τ2: 3.2 ms
  Brightness (λexc = 640 nm) 0.7 W/cm^2: 15.2
  Brightness (λexc = 640 nm) 800 W/cm^2: 10.3
  Sensitivity (ΔF/F per 100 mV): 33%
HEK293T cells; 34° C., step −70 mV to +30 mV
  step response time constant (single or first component): ~0.05 ms
HEK293T cells; high intensity (>100 W/cm^2)
  brightness relative to wild-type Arch: 2.5 fold
HEK293T cells; [3]
  brightness relative to wild-type Arch: 15 fold
HEK293T cells; room temperature (23° C.), step −70 mV to +30 mV
  step response time constant (single or first component): < 0.05 ms and 0.053 ± 0.002 ms
[2]
  fluorescence quantum yield enhanced relative to Arch(D95N): 19 fold
  Quantum yield: 8 × 10^−3
  Quantum yield relative to Arch D95N: 19

B2: QuasAr2: Archaerhodopsin 3 variant with mutations P60S, T80S, D95Q, D106H, F161V; genetically encoded voltage indicator (protein)
chain: MDPIALQAGYDLLGDGRPETLWLGIGTLLMLIGTFYFLVRGWGVTDKDAREYYAVTILVSGIASAAYLSMFFGIGLTEVSVGGEMLDIYYARYAQWLFTTPLLLLHLALLAKVDRVTIGTLVGVDALMIVTGLIGALSHTAIARYSWWLFSTICMIVVLYVLATSLRSAAKERGPEVASTFNTLTALVLVLWTAYPILWIIGTEGAGVVGLGIETLLFMVLDVTAKVGFGFILLRSRAILGDTEAPEPSAGADVSAAD
[1]; 34° C., 640 nm 300 W/cm^2
  single-trial SNR: 41±3
[1]; 34° C., mean±s.d.
  broadening of optically recorded AP relative to electrical waveform: 180±120 μs
[1]; 300 W/cm^2
  equivalent electrical noise level: 2.2 mV
  photobleaching time constant: 1020 s
[1]; 300 W/cm^2, 1 kHz frame rate
  signal-to-noise ratio (SNR) for single APs: 41±4
[1]; 800 W/cm^2
  equivalent electrical noise level: 1.5 mV
[1]; continuous illumination at 300 W/cm^2, 30 min
  fidelity of AP reporting (red light phototoxicity test): 100%
[1]; mean±s.d.
  broadening of optically recorded AP relative to electrical waveform at 70% maximum depolarization: 650±150 μs
[1]
  r.m.s. temporal jitter of AP timing relative to patch clamp: 61 μs
HEK293T cells; 23° C.
  weight of first component of bi-exponential step response: 68%
  weight of second component of bi-exponential step response: 32%
  τdown (+30 mV to −70 mV) % τ1: 80%
  τdown (+30 mV to −70 mV) τ1: 1.0 ms
  τdown (+30 mV to −70 mV) τ2: 15.9 ms
  τup (−70 mV to +30 mV) % τ1: 68%
  τup (−70 mV to +30 mV) τ1: 1.2 ms
  τup (−70 mV to +30 mV) τ2: 11.8 ms
  Brightness (λexc = 640 nm) 0.7 W/cm^2: 3.4
  Brightness (λexc = 640 nm) 800 W/cm^2: 3.4
  Sensitivity (ΔF/F per 100 mV): 90%
HEK293T cells; 23° C., step −70 mV to +30 mV
  step response time constant (second component): 11.8 ± 1.5 ms
HEK293T cells; 34° C.
  step response time constant (second component): 3.2 ± 0.4 ms
  weight of first component of bi-exponential step response: 62%
  weight of second component of bi-exponential step response: 38%
  τdown (+30 mV to −70 mV) % τ1: 73%
  τdown (+30 mV to −70 mV) τ1: 0.3 ms
  τdown (+30 mV to −70 mV) τ2: 4.0 ms
  τup (−70 mV to +30 mV) % τ1: 62%
  τup (−70 mV to +30 mV) τ1: 0.3 ms
  τup (−70 mV to +30 mV) τ2: 3.2 ms
HEK293T cells; 34° C., step −70 mV to +30 mV
  step response time constant (single or first component): 0.3 ± 0.05 ms
HEK293T cells
  voltage sensitivity (ΔF/F per 100 mV): 90±2%
  brightness compared with corresponding double mutants: significantly brighter than the corresponding double mutants
HEK293T cells; high intensity (>100 W/cm^2)
  brightness relative to wild-type Arch: comparable
HEK293T cells; [3]
  brightness relative to wild-type Arch: 3.3 fold
[2]
  fluorescence quantum yield enhanced relative to Arch(D95N): 10 fold
  Quantum yield: 4 × 10^−3
  Quantum yield relative to Arch D95N: 10
